Results reported in article PMC8567228 (EMBO Reports, 2021).
Numbering of substitutions follows the chain as printed. Numbers in names are those of the source. Blank lines part the entries; values can stand above or below the binder they belong to.

Experiments:
[1] = biological target: T1, Rab8a phosphorylated at Thr72 (pRab8a) (human), P61006; assay: cross-linking; DSBU 9.375 mM, 10 min at RT; 35 µM Rab8a and 28 µM PPM1H pre-incubated 1 h at 30°C in 40 mM HEPES pH 7.5, 150 mM NaCl, 2 mM MgCl2; SDS-PAGE, bands digested and read by LC MS/MS
T1 chain: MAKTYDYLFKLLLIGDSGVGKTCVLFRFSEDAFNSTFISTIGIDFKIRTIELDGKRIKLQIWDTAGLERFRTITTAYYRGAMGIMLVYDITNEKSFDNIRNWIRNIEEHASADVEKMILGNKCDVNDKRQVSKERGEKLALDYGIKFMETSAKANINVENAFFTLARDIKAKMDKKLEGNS

[2] = biological target: the molecule itself; assay: crystal structure; vapour diffusion crystals, space group P212121, two molecules of PPM1H in the asymmetric unit; with Mg2+ (7kpr, 7l4j, 7l4i) or Mn2+ (7n0z)
[3] = biological target: T2, pThr73-Rab10 switch 2 phosphopeptide (human)
T2 sequence (peptide, phosphothreonine (T*) at Thr73): AGQERFHTITTSYYR

[4] = biological target: Rab8a phosphorylated at Thr72 (pRab8a) (human) (UniProt P61006)
[5] = biological target: T3, pThr72-Rab8a switch 2 phosphopeptide (residues 65-79) (human)
T3 sequence (peptide, phosphothreonine (T*) at Thr72): AGQERFRTITTAYYR

[6] = biological target: the molecule itself; assay: SEC-MALS; His6-tagged proteins injected at 2 mg/ml (100 μl) into a Superdex 200 column; DAWN Heleos and Optilab TrEX detectors

B1: Recombinant PPM1H[D288A] used for DSBU cross-linking, Q9ULR3 1-514 (enzyme)
chain: SDLPLRFPYGRPEFLGLSQDEVECSADHIARPILILKETRRLPWATGYAEVINAGKSTHNEDQASCEVLTVKKKAGAVTSTPNRNSSKRRSSLPNGEGLQLKENSESEGVSCHYWSLFDGHAGSGAAVVASRLLQHHITEQLQDIVDILKNSAVLPPTCLGEEPENTPANSRTLTRAASLRGGVGAPGSPSTPPTRFFTEKKIPHECLVIGALESAFKEMDLQIERERSSYNISGGCTALIVICLLGKLYVANAGASRAIIIRNGEIIPMSSEFTPETERQRLQYLAFMQPHLLGNEFTHLEFPRRVQRKELGKKMLYRDFNMTGWAYKTIEDEDLKFPLIYGEGKKARVMATIGVTRGLGDHDLKVHDSNIYIKPFLSSAPEVRIYDLSKYDHGSDDVLILATDGLWDVLSNEEVAEAITQFLPNCDPDDPHRYTLAAQDLVMRARGVLKDRGWRISNDRLGSGDDISVYVIPLIHGNKLS
modifications: not checked
stoichiometry N (PPM1H per pRab8a (2:2)) [1]: 1

B2: PPM1H^DA (residues 33-514, D288A), crystallised form (enzyme, human, UniProt Q9ULR3 33-514, looked up)
chain: B1 chain
notes: PPM1H phosphatase, human, residues 33-514 with D288A (substrate-trapping mutant); Two molecules in the asymmetric unit; two Mg2+ ions at the active site; also called pNIC28-Bsa4-PPM1H^33-514 D288A; source: E. coli, purified (nickel agarose, TEV cleavage, second Ni column, Superdex 200)
binding result [2]: binds

B5: PPM1H^DA-LD (residues 33-514, D288A, loop 188-226 replaced by GSGS, C56A), crystallised form (enzyme, human)
chain: SDLPLRFPYGRPEFLGLSQDEVEASADHIARPILILKETRRLPWATGYAEVINAGKSTHNEDQASCEVLTVKKKAGAVTSTPNRNSSKRRSSLPNGEGLQLKENSESEGVSCHYWSLFDGHAGSGAAVVASRLLQHHITEQLQDIVDILKNSAVLGSGSTRFFTEKKIPHECLVIGALESAFKEMDLQIERERSSYNISGGCTALIVICLLGKLYVANAGASRAIIIRNGEIIPMSSEFTPETERQRLQYLAFMQPHLLGNEFTHLEFPRRVQRKELGKKMLYRDFNMTGWAYKTIEDEDLKFPLIYGEGKKARVMATIGVTRGLGDHDLKVHDSNIYIKPFLSSAPEVRIYDLSKYDHGSDDVLILATDGLWDVLSNEEVAEAITQFLPNCDPDDPHRYTLAAQDLVMRARGVLKDRGWRISNDRLGSGDDISVYVIPLIHGNKLS
notes: PPM1H phosphatase, human, residues 33-187 with C56A; short linker that replaces the loop 188-226; PPM1H phosphatase, human, residues 227-514 with D288A; also called pET28a(+)-PPM1H^D288A LoopDEL; source: E. coli, purified (nickel agarose, TEV cleavage, second Ni column, Superdex 200); not shown: His6, N-terminal, cleaved
binding result [2]: binds

B6: His6-tagged PPM1H^WT-LD (residues 33-514, loop 188-226 replaced by GSGS, C56A) (enzyme, human)
chain: B5 chain with A221D
notes: PPM1H phosphatase, human, residues 33-187 with C56A; short linker that replaces the loop 188-226; PPM1H phosphatase, human, residues 227-514; Same construct as m2 but with the His6 tag kept for SEC-MALS (calculated about 52.1 kDa); source: E. coli, purified (Ni-agarose, Superdex 200); not shown: His6, N-terminal, kept
stoichiometry N [6]: 2

The remaining lines, values ahead:

initial rate of phosphate release (malachite green time course), 32 μM pThr73-Rab10 peptide, against wild-type PPM1H (fold reduction) [3]: > 20
initial rate of phosphate release (malachite green time course), 16 μM pThr72-Rab8a protein (GTPγS), against wild-type PPM1H (fold reduction) [4]: > 20
initial rate of phosphate release (malachite green time course), 32 μM pThr72-Rab8a peptide, against wild-type PPM1H (fold reduction) [5]: > 20
B3: His6-SUMO-PPM1H[K88A], full length (enzyme)
chain: MLTRVKSAVANFMGGIMAGSSGSEHGGGSCGGSDLPLRFPYGRPEFLGLSQDEVECSADHIARPILILKETRRLPWATGYAEVINAGASTHNEDQASCEVLTVKKKAGAVTSTPNRNSSKRRSSLPNGEGLQLKENSESEGVSCHYWSLFDGHAGSGAAVVASRLLQHHITEQLQDIVDILKNSAVLPPTCLGEEPENTPANSRTLTRAASLRGGVGAPGSPSTPPTRFFTEKKIPHECLVIGALESAFKEMDLQIERERSSYNISGGCTALIVICLLGKLYVANAGDSRAIIIRNGEIIPMSSEFTPETERQRLQYLAFMQPHLLGNEFTHLEFPRRVQRKELGKKMLYRDFNMTGWAYKTIEDEDLKFPLIYGEGKKARVMATIGVTRGLGDHDLKVHDSNIYIKPFLSSAPEVRIYDLSKYDHGSDDVLILATDGLWDVLSNEEVAEAITQFLPNCDPDDPHRYTLAAQDLVMRARGVLKDRGWRISNDRLGSGDDISVYVIPLIHGNKLS

initial activity of phosphate release (malachite green time course), 16 μM pThr72-Rab8a protein (GTPγS), against wild-type PPM1H (fold reduction) [4]: 2
B4: His6-SUMO-PPM1H[R338A], full length (enzyme)
chain: B3 chain with A88K, R338A
